Measurements reported in patent publication US20240132624A1 (Ablynx, published 2024).

How the values were obtained:
cyno FcRn/b2M [1] = target: T1, cyno FcRn/b2M (cyno, UniProt Q8SPV9 24-297; Q8SPW0 21-119, biotinylated); experiment: SPR pH 7.4;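 further: surface plasmon resonance kinetics, periplasmic extracts diluted 1:10 flowed over immobilized target at 25 °C, 120 s association then 600–3600 s dissociation, buffer with 150 mM NaCl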
T1 construct: bought recombinant biotinylated protein (Immunitrack ITF05 or ACRO FCM-C82W5); also called cFcRn; cFcRn/cb2M
Experimental: (§1) All kinetic measurements have been performed on ProteOn XPR36 (BioRad Laboratories, Inc.), MASS-2 (Sierra sensors, Gmbh) or SPR-32 (Bruker Corporation). […] The phytip purified periplasmic extracts were diluted 1:10 in running buffer (CPA+150 mM NaCl+0.005% Tw20 at pH 5.5, pH 6.0 or pH 7.4) and injected over the ligand surfaces (association: 120 s at 45 μL/min; dissociation: 600s-3600 s at 45 μL/min). Experiments were carried out at 25° C.

human FcRn/b2M [2] = target: T2, human FcRn/b2M (human, UniProt P61769 21-119, biotinylated); experiment: SPR pH 7.4;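 further: surface plasmon resonance kinetics, periplasmic extracts diluted 1:10 flowed over immobilized target at 25 °C, 120 s association then 600–3600 s dissociation, buffer with 150 mM NaCl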
T2 construct: bought recombinant biotinylated protein (ACRO FCM-H82W4 or Immunitrack ITF01); also called hFcRn; hFcRn/hb2M
Experimental: as §1

cyno FcRn/b2M [3] = target: T1, cyno FcRn/b2M; experiment: SPR pH 6.0;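 further: surface plasmon resonance kinetics at 25 °C, diluted periplasmic extracts injected over immobilized ligand surfaces, 120 s association then 600–3600 s dissociation, running buffer containing 150 mM NaCl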
Experimental: as §1

human FcRn/b2M [4] = target: T2, human FcRn/b2M; experiment: SPR pH 6.0;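 further: surface plasmon resonance kinetics at 25 °C, diluted periplasmic extracts injected over immobilized ligand surfaces, 120 s association then 600–3600 s dissociation, running buffer containing 150 mM NaCl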
Experimental: as §1

cyno FcRn/b2M [5] = target: T1, cyno FcRn/b2M; experiment: SPR off-rate; pH 7.4 vs pH 6.0;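 further: surface plasmon resonance with diluted periplasmic extracts flowed over ligand surfaces, 120 s association and 600–3600 s dissociation at 25 °C, running buffer containing 150 mM NaCl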
Experimental: as §1

human FcRn/b2M [6] = target: T2, human FcRn/b2M; experiment: SPR off-rate; pH 7.4 vs pH 6.0;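 further: surface plasmon resonance with diluted periplasmic extracts flowed over ligand surfaces, 120 s association and 600–3600 s dissociation at 25 °C, running buffer containing 150 mM NaCl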
Experimental: as §1

T1 sequence (Q8SPV9 24-297 limits assumed, chain 1 of 2): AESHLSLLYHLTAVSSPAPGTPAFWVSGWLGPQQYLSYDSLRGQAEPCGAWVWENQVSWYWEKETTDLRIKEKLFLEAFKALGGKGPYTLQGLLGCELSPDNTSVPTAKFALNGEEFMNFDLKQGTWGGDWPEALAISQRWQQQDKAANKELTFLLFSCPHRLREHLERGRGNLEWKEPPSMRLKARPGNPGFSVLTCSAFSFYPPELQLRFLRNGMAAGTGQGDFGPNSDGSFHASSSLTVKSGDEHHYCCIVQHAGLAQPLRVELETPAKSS
T1 sequence (Q8SPW0 21-119 limits assumed, chain 2 of 2): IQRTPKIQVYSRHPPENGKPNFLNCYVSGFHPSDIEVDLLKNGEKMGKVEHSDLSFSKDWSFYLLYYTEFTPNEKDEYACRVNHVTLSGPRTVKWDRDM
T2 sequence (chain, as listed by the source limits assumed, chain 1 of 2): as the sequence (Q8SPV9 24-297 limits assumed, chain 1 of 2) above, with D39N, Q44E, S99G, G189S, N190S, M217L, T269S counted along it
T2 sequence (P61769 21-119 limits assumed, chain 2 of 2): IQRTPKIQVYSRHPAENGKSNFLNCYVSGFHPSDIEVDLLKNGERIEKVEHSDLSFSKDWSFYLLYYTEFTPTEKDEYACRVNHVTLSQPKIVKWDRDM

| Binder | koff (cyno FcRn/b2M [1]) [s⁻¹] | koff (human FcRn/b2M [2]) [s⁻¹] | koff (cyno FcRn/b2M [3]) [s⁻¹] | koff (human FcRn/b2M [4]) [s⁻¹] | kd ratio pH 7.4/6.0 (cyno FcRn/b2M [5]) | kd ratio pH 7.4/6.0 (human FcRn/b2M [6]) |
| --- | --- | --- | --- | --- | --- | --- |
| T0263018B11 S30T (VHH, name in Kabat numbering, FLAG3-His6 tagged) VHH: EVQLVESGGGVVQPGGSLRLSCAASGFTFTSYAMYWVRQAPGKGLEWVSAISSGGGSTDYADSVKGRFTISRDNSKNTLYLQMNSLRPEDTALYYCAADTLYTSLTWYSYWGQGTLVTVSS | 0.062 | 0.059 | 0.0014 | 0.0016 | 44 | 37 |
| T0263018B11 S52T (VHH, name in Kabat numbering, FLAG3-His6 tagged) VHH: EVQLVESGGGVVQPGGSLRLSCAASGFTFSSYAMYWVRQAPGKGLEWVSAITSGGGSTDYADSVKGRFTISRDNSKNTLYLQMNSLRPEDTALYYCAADTLYTSLTWYSYWGQGTLVTVSS | 0.042 | 0.045 | 0.0017 | 0.0019 | 25 | 24 |
| T0263018B11 S31Q (VHH, name in Kabat numbering, FLAG3-His6 tagged) VHH: EVQLVESGGGVVQPGGSLRLSCAASGFTFSQYAMYWVRQAPGKGLEWVSAISSGGGSTDYADSVKGRFTISRDNSKNTLYLQMNSLRPEDTALYYCAADTLYTSLTWYSYWGQGTLVTVSS | 0.013 | 0.017 | 0.00016 | 0.00038 | 79 | 43 |
| T0263018B11 S52V (VHH, name in Kabat numbering, FLAG3-His6 tagged) VHH: EVQLVESGGGVVQPGGSLRLSCAASGFTFSSYAMYWVRQAPGKGLEWVSAIVSGGGSTDYADSVKGRFTISRDNSKNTLYLQMNSLRPEDTALYYCAADTLYTSLTWYSYWGQGTLVTVSS | 0.064 | 0.058 | 0.0025 | 0.0024 | 25 | 24 |
| T0263018B11 S52aA (VHH, name in Kabat numbering, FLAG3-His6 tagged) VHH: EVQLVESGGGVVQPGGSLRLSCAASGFTFSSYAMYWVRQAPGKGLEWVSAISAGGGSTDYADSVKGRFTISRDNSKNTLYLQMNSLRPEDTALYYCAADTLYTSLTWYSYWGQGTLVTVSS | 0.022 | 0.029 | 0.00043 | 0.00068 | 51 | 43 |
| T0263018B11 S52R (VHH, name in Kabat numbering, FLAG3-His6 tagged) VHH: EVQLVESGGGVVQPGGSLRLSCAASGFTFSSYAMYWVRQAPGKGLEWVSAIRSGGGSTDYADSVKGRFTISRDNSKNTLYLQMNSLRPEDTALYYCAADTLYTSLTWYSYWGQGTLVTVSS | 0.38 | 0.44 | 0.016 | 0.023 | 24 | 20 |
| T0263018B11 S52E (VHH, name in Kabat numbering, FLAG3-His6 tagged) VHH: EVQLVESGGGVVQPGGSLRLSCAASGFTFSSYAMYWVRQAPGKGLEWVSAIESGGGSTDYADSVKGRFTISRDNSKNTLYLQMNSLRPEDTALYYCAADTLYTSLTWYSYWGQGTLVTVSS | 0.047 | 0.042 | 0.0023 | 0.0026 | 20 | 16 |
| T0263018B11 S52H (VHH, name in Kabat numbering, FLAG3-His6 tagged) VHH: EVQLVESGGGVVQPGGSLRLSCAASGFTFSSYAMYWVRQAPGKGLEWVSAIHSGGGSTDYADSVKGRFTISRDNSKNTLYLQMNSLRPEDTALYYCAADTLYTSLTWYSYWGQGTLVTVSS | 0.11 | 0.15 | 0.0022 | 0.0032 | 48 | 46 |
| T0263018B11 S52P (VHH, name in Kabat numbering, FLAG3-His6 tagged) VHH: EVQLVESGGGVVQPGGSLRLSCAASGFTFSSYAMYWVRQAPGKGLEWVSAIPSGGGSTDYADSVKGRFTISRDNSKNTLYLQMNSLRPEDTALYYCAADTLYTSLTWYSYWGQGTLVTVSS | 0.048 | 0.03 | 0.0013 | 0.0011 | 37 | 27 |
| T0263018B11 S52aE (VHH, name in Kabat numbering, FLAG3-His6 tagged) VHH: EVQLVESGGGVVQPGGSLRLSCAASGFTFSSYAMYWVRQAPGKGLEWVSAISEGGGSTDYADSVKGRFTISRDNSKNTLYLQMNSLRPEDTALYYCAADTLYTSLTWYSYWGQGTLVTVSS | 0.039 | 0.036 | 0.00077 | 0.00087 | 51 | 41 |
| T0263018B11 S52D (VHH, name in Kabat numbering, FLAG3-His6 tagged) VHH: EVQLVESGGGVVQPGGSLRLSCAASGFTFSSYAMYWVRQAPGKGLEWVSAIDSGGGSTDYADSVKGRFTISRDNSKNTLYLQMNSLRPEDTALYYCAADTLYTSLTWYSYWGQGTLVTVSS | 0.19 | 0.14 | 0.0031 | 0.0044 | 61 | 32 |
| T0263018B11 S52Q (VHH, name in Kabat numbering, FLAG3-His6 tagged) VHH: EVQLVESGGGVVQPGGSLRLSCAASGFTFSSYAMYWVRQAPGKGLEWVSAIQSGGGSTDYADSVKGRFTISRDNSKNTLYLQMNSLRPEDTALYYCAADTLYTSLTWYSYWGQGTLVTVSS | 0.14 | 0.15 | 0.0055 | 0.0067 | 26 | 22 |
| T0263018B11 S31K (VHH, name in Kabat numbering, FLAG3-His6 tagged) VHH: EVQLVESGGGVVQPGGSLRLSCAASGFTFSKYAMYWVRQAPGKGLEWVSAISSGGGSTDYADSVKGRFTISRDNSKNTLYLQMNSLRPEDTALYYCAADTLYTSLTWYSYWGQGTLVTVSS | 0.044 | 0.048 | 0.0011 | 0.0013 | 40 | 37 |
| T0263018B11 S52G (VHH, name in Kabat numbering, FLAG3-His6 tagged) VHH: EVQLVESGGGVVQPGGSLRLSCAASGFTFSSYAMYWVRQAPGKGLEWVSAIGSGGGSTDYADSVKGRFTISRDNSKNTLYLQMNSLRPEDTALYYCAADTLYTSLTWYSYWGQGTLVTVSS | 0.011 | 0.012 | 0.0004 | 0.00039 | 27 | 32 |
| T0263018B11 S31P (VHH, name in Kabat numbering, FLAG3-His6 tagged) VHH: EVQLVESGGGVVQPGGSLRLSCAASGFTFSPYAMYWVRQAPGKGLEWVSAISSGGGSTDYADSVKGRFTISRDNSKNTLYLQMNSLRPEDTALYYCAADTLYTSLTWYSYWGQGTLVTVSS | 0.043 | 0.043 | 0.00073 | 0.00088 | 59 | 49 |
| T0263018B11 S31T (VHH, name in Kabat numbering, FLAG3-His6 tagged) VHH: EVQLVESGGGVVQPGGSLRLSCAASGFTFSTYAMYWVRQAPGKGLEWVSAISSGGGSTDYADSVKGRFTISRDNSKNTLYLQMNSLRPEDTALYYCAADTLYTSLTWYSYWGQGTLVTVSS | 0.018 | 0.024 | 0.0003 | 0.00052 | 60 | 46 |
| T0263018B11 S31N (VHH, name in Kabat numbering, FLAG3-His6 tagged) VHH: EVQLVESGGGVVQPGGSLRLSCAASGFTFSNYAMYWVRQAPGKGLEWVSAISSGGGSTDYADSVKGRFTISRDNSKNTLYLQMNSLRPEDTALYYCAADTLYTSLTWYSYWGQGTLVTVSS | 0.12 | 0.17 | 0.0018 | 0.0034 | 69 | 50 |
| T0263018B11 S52aG (VHH, name in Kabat numbering, FLAG3-His6 tagged) VHH: EVQLVESGGGVVQPGGSLRLSCAASGFTFSSYAMYWVRQAPGKGLEWVSAISGGGGSTDYADSVKGRFTISRDNSKNTLYLQMNSLRPEDTALYYCAADTLYTSLTWYSYWGQGTLVTVSS | 0.031 | 0.034 | 0.0006 | 0.00088 | 51 | 39 |
